Measurements published in patent US10941182 (Amgen, dated 2021).
Starred links: 1 amine or outer side, 2 acyl side, 3 side chain; linkers in the order of their positions; H or OH if unused. Non-standard residues stand in square brackets, D forms with d. *: point of attachment. dBip = N[C@H](Cc1ccc(-c2ccccc2)cc1)C(=O)O; Oic = O=C(O)[C@@H]1C[C@@H]2CCCC[C@@H]2N1; Phe(4-Cl) = N[C@@H](Cc1ccc(Cl)cc1)C(=O)O; dPhe(4-Cl) = N[C@H](Cc1ccc(Cl)cc1)C(=O)O; Phe(4-I) = N[C@@H](Cc1ccc(I)cc1)C(=O)O; γGlu = O=C(O)[C@H](CCC(=O)[*:2])N[*:1]; NMeR = CN[C@@H](CCCNC(=N)N)C(=O)O; Tridecanoyl = CCCCCCCCCCCCC(=O)*; hArg = N=C(N)NCCCC[C@H](N)C(=O)O; Cha = N[C@@H](CC1CCCCC1)C(=O)O; NMeL = CN[C@@H](CC(C)C)C(=O)O; Nle = CCCC[C@H](N)C(=O)O; AEEA = NCCOCCOCC(=O)O; BLeu = β-leucine

Key:
rat APJ receptor = target: T1, rat APJ receptor (rat, UniProt Q9JHG3 1-377); assay: cell-based or functional assay
T1 sequence (looked up): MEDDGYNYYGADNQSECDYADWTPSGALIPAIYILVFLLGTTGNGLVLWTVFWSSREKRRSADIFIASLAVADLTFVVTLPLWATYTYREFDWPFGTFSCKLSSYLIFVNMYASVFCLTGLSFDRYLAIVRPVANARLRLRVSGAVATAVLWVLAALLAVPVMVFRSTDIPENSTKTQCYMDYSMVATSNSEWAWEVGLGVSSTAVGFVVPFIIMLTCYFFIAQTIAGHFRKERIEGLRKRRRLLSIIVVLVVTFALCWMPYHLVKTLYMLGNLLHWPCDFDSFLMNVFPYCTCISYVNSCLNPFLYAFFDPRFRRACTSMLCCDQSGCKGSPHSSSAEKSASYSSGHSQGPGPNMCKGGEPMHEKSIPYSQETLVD

human APJ receptor = target: T2, human APJ receptor (human, UniProt P35414 1-380); assay: cell-based or functional assay
T2 sequence (looked up): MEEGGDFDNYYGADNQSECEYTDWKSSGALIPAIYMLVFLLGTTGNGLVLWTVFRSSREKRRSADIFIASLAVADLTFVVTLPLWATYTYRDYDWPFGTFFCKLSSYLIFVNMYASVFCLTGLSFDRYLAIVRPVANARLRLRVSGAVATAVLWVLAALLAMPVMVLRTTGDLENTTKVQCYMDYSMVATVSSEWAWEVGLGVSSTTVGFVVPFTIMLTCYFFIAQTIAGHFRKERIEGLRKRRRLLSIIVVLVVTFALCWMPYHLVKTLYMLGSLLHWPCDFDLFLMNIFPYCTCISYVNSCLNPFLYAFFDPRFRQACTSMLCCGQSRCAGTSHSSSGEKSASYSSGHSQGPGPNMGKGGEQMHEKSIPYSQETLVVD

Binder | EC50 Rat APJ Receptor (rat APJ receptor) [nM] | EC50 Human APJ Receptor (human APJ receptor) [nM]
Tridecanoyl-[γGlu][AEEA][AEEA][dQ][NMeR]P[dR][Cha]SHKG[Oic][Nle]P[Phe(4-Cl)]-OH (SMILES CCCCCCCCCCCCC(=O)N[C@@H](CCC(=O)NCCOCCOCC(=O)NCCOCCOCC(=O)N[C@H](CCC(N)=O)C(=O)N(C)[C@@H](CCCNC(=N)N)C(=O)N1CCC[C@H]1C(=O)N[C@H](CCCNC(=N)N)C(=O)N[C@@H](CC1CCCCC1)C(=O)N[C@@H](CO)C(=O)N[C@@H](Cc1c[nH]cn1)C(=O)N[C@@H](CCCCN)C(=O)NCC(=O)N1[C@H](C(=O)N[C@@H](CCCC)C(=O)N2CCC[C@H]2C(=O)N[C@@H](Cc2ccc(Cl)cc2)C(=O)O)C[C@@H]2CCCC[C@@H]21)C(=O)O) [apelin polypeptide SEQ ID NO: 280] | 4.47 | 2.04
Tridecanoyl-[γGlu][AEEA][AEEA][dQ][hArg]P[dR][BLeu]SHKG[Oic][Nle]P[dPhe(4-Cl)]-OH [apelin polypeptide SEQ ID NO: 281] | 87.3 | 14.8
Ac-[hArg][hArg]Q[hArg][Oic][dR][NMeL]SHKG[Oic][Phe(4-I)]P[dBip]-OH (SMILES CC(=O)N[C@@H](CCCCNC(=N)N)C(=O)N[C@@H](CCCCNC(=N)N)C(=O)N[C@@H](CCC(N)=O)C(=O)N[C@@H](CCCCNC(=N)N)C(=O)N1[C@H](C(=O)N[C@H](CCCNC(=N)N)C(=O)N(C)[C@@H](CC(C)C)C(=O)N[C@@H](CO)C(=O)N[C@@H](Cc2c[nH]cn2)C(=O)N[C@@H](CCCCN)C(=O)NCC(=O)N2[C@H](C(=O)N[C@@H](Cc3ccc(I)cc3)C(=O)N3CCC[C@H]3C(=O)N[C@H](Cc3ccc(-c4ccccc4)cc3)C(=O)O)C[C@@H]3CCCC[C@@H]32)C[C@@H]2CCCC[C@@H]21) [apelin polypeptide SEQ ID NO: 21] | 1.8 | 0.57
Tridecanoyl-[γGlu][AEEA][AEEA]Q[NMeR]P[dR][Cha]SHKG[Oic][Nle]P[Phe(4-Cl)]-OH (SMILES CCCCCCCCCCCCC(=O)N[C@@H](CCC(=O)NCCOCCOCC(=O)NCCOCCOCC(=O)N[C@@H](CCC(N)=O)C(=O)N(C)[C@@H](CCCNC(=N)N)C(=O)N1CCC[C@H]1C(=O)N[C@H](CCCNC(=N)N)C(=O)N[C@@H](CC1CCCCC1)C(=O)N[C@@H](CO)C(=O)N[C@@H](Cc1c[nH]cn1)C(=O)N[C@@H](CCCCN)C(=O)NCC(=O)N1[C@H](C(=O)N[C@@H](CCCC)C(=O)N2CCC[C@H]2C(=O)N[C@@H](Cc2ccc(Cl)cc2)C(=O)O)C[C@@H]2CCCC[C@@H]21)C(=O)O) [apelin polypeptide SEQ ID NO: 279] | 19.3 | 3.29
Tridecanoyl-[γGlu][AEEA][AEEA][dQ][hArg]P[dR][Cha]SHKG[Oic][Nle][Phe(4-Cl)]-OH (SMILES CCCCCCCCCCCCC(=O)N[C@@H](CCC(=O)NCCOCCOCC(=O)NCCOCCOCC(=O)N[C@H](CCC(N)=O)C(=O)N[C@@H](CCCCNC(=N)N)C(=O)N1CCC[C@H]1C(=O)N[C@H](CCCNC(=N)N)C(=O)N[C@@H](CC1CCCCC1)C(=O)N[C@@H](CO)C(=O)N[C@@H](Cc1c[nH]cn1)C(=O)N[C@@H](CCCCN)C(=O)NCC(=O)N1[C@H](C(=O)N[C@@H](CCCC)C(=O)N[C@@H](Cc2ccc(Cl)cc2)C(=O)O)C[C@@H]2CCCC[C@@H]21)C(=O)O) [apelin polypeptide SEQ ID NO: 282] | 13.3 | 5.79
Tridecanoyl-[γGlu][AEEA][AEEA][BLeu][hArg]P[dR][Cha]SHKG[Oic][Nle]P[Phe(4-Cl)]-OH [apelin polypeptide SEQ ID NO: 278] | 14.5 | 10.1
